Data on three molecules can be found in article PMC5556974 (Developmental cell, 2017).

For series [1], the target named is GST-CEP19 (human) (UniProt Q96LK0). The series is described as follows: pull-down.
The target in series [2] is GST-CrCEP19 (Chlamydomonas reinhardtii). Kind of series: pull-down.
Series [3] deals with the molecule itself.

Sequence of GST-CEP19 (human) (Q96LK0 whole entry): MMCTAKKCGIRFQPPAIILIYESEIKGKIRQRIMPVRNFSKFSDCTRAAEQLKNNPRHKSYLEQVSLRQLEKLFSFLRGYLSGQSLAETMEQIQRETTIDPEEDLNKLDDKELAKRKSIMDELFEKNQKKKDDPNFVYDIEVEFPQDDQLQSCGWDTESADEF

On to “MYC-RABL2B, full length (in vitro translated) (from UniProt Q9UNT1 1-228) (natural protein)”, for which, in series [1], the fold enhancement of binding by GTP addition was found to be 5 fold.
Take “MYC-CrRabl2 (in vitro translated) (natural protein)”: in series [2], the fold enhancement of binding by GTP addition turned out to be 5 fold.

B1: untagged human RABL2B (natural protein, UniProt Q9UNT1-2 1-229, looked up)
chain: MAEDKTKPSELDQGKYDADDNVKIICLGDSAVGKSKLMERFLMDGFQPQQLSTYALTLYKHTATVDGRTILVDFWDTAGQERFQSMHASYYHKAHACIMVFDVQRKVTYRNLSTWYTELREFRPEIPCIVVANKIDADINVTQKSFNFAKKFSLPLYFVSAADGTNVVKLFNDAIRLAVSYKQNSQDFMDEIFQELENFSLEQEEEDVPDQEQSSSIETPSEEAASPHS
For the molecule B1, the “stoichiometry N” value in series [3] was 4.
